Assay results published in paper PMC11098961.

Molecular target: PME-1 (UniProt Q9Y570)
Assay: FLAG-PP2Ac immunoprecipitation, PME-1 blot
Settings: reference: wild type

Row | Substance | binding against the reference (sites S225,T227) | binding against the reference (sites S285)
1 | PP2Ac (from UniProt P67775) S225A/T227A | weaker | –
2 | PP2Ac (from UniProt P67775) S285A | – | weaker
